Assay results reported in IntAct's records for PubMed 10801818.

B1: Zyxin (Homo sapiens), Q15942 (parent)
chain: MAAPRPSPAISVSVSAPAFYAPQKKFGPVVAPKPKVNPFRPGDSEPPPAPGAQRAQMGRVGEIPPPPPEDFPLPPPPLAGDGDDAEGALGGAFPPPPPPIEESFPPAPLEEEIFPSPPPPPEEEGGPEAPIPPPPQPREKVSSIDLEIDSLSSLLDDMTKNDPFKARVSSGYVPPPVATPFSSKSSTKPAAGGTAPLPPWKSPSSSQPLPQVPAPAQSQTQFHVQPQPQPKPQVQLHVQSQTQPVSLANTQPRGPPASSPAPAPKFSPVTPKFTPVASKFSPGAPGGSGSQPNQKLGHPEALSAGTGSPQPPSFTYAQQREKPRVQEKQHPVPPPAQNQNQVRSPGAPGPLTLKEVEELEQLTQQLMQDMEHPQRQNVAVNELCGRCHQPLARAQPAVRALGQLFHIACFTCHQCAQQLQGQQFYSLEGAPYCEGCYTDTLEKCNTCGEPITDRMLRATGKAYHPHCFTCVVCARPLEGTSFIVDQANRPHCVPDYHKQYAPRCSVCSEPIMPEPGRDETVRVVALDKNFHMKCYKCEDCGKPLSIEADDNGCFPLDGHVLCRKCHTARAQT

Variants of: B1
Conditions: with enah_human ENAH

Row | effect of a mutation on the interaction | Variant
1 | decreasing interaction | MAAPRPSPAISVSVSAPAFYAPQKKFGPVVAPKPKVNPFRPGDSEPPPAPGAQRAQMGRVGEIPPPPPEDAPLPPPPLAGDGDDAEGALGGAAPPPPPPIEESAPPAPLEEEIFPSPPPPPEEEGGPEAPIPPPPQPREKVSSIDLEIDSLSSLLDDMTKNDPFKARVSSGYVPPPVATPFSSKSSTKPAAGGTAPLPPWKSPSSSQPLPQVPAPAQSQTQFHVQPQPQPKPQVQLHVQSQTQPVSLANTQPRGPPASSPAPAPKFSPVTPKFTPVASKFSPGAPGGSGSQPNQKLGHPEALSAGTGSPQPPSFTYAQQREKPRVQEKQHPVPPPAQNQNQVRSPGAPGPLTLKEVEELEQLTQQLMQDMEHPQRQNVAVNELCGRCHQPLARAQPAVRALGQLFHIACFTCHQCAQQLQGQQFYSLEGAPYCEGCYTDTLEKCNTCGEPITDRMLRATGKAYHPHCFTCVVCARPLEGTSFIVDQANRPHCVPDYHKQYAPRCSVCSEPIMPEPGRDETVRVVALDKNFHMKCYKCEDCGKPLSIEADDNGCFPLDGHVLCRKCHTARAQT [F71A;F93A;F104A]
2 | decreasing interaction | MAAPRPSPAISVSVSAPAFYAPQKKFGPVVAPKPKVNPFRPGDSEPPPAPGAQRAQMGRVGEIPPPPPEDAPLPPPPLAGDGDDAEGALGGAFPPPPPPIEESFPPAPLEEEIFPSPPPPPEEEGGPEAPIPPPPQPREKVSSIDLEIDSLSSLLDDMTKNDPFKARVSSGYVPPPVATPFSSKSSTKPAAGGTAPLPPWKSPSSSQPLPQVPAPAQSQTQFHVQPQPQPKPQVQLHVQSQTQPVSLANTQPRGPPASSPAPAPKFSPVTPKFTPVASKFSPGAPGGSGSQPNQKLGHPEALSAGTGSPQPPSFTYAQQREKPRVQEKQHPVPPPAQNQNQVRSPGAPGPLTLKEVEELEQLTQQLMQDMEHPQRQNVAVNELCGRCHQPLARAQPAVRALGQLFHIACFTCHQCAQQLQGQQFYSLEGAPYCEGCYTDTLEKCNTCGEPITDRMLRATGKAYHPHCFTCVVCARPLEGTSFIVDQANRPHCVPDYHKQYAPRCSVCSEPIMPEPGRDETVRVVALDKNFHMKCYKCEDCGKPLSIEADDNGCFPLDGHVLCRKCHTARAQT [F71A]
3 | decreasing interaction | MAAPRPSPAISVSVSAPAFYAPQKKFGPVVAPKPKVNPFRPGDSEPPPAPGAQRAQMGRVGEIPPPPPEDFPLPPPPLAGDGDDAEGALGGAAPPPPPPIEESFPPAPLEEEIFPSPPPPPEEEGGPEAPIPPPPQPREKVSSIDLEIDSLSSLLDDMTKNDPFKARVSSGYVPPPVATPFSSKSSTKPAAGGTAPLPPWKSPSSSQPLPQVPAPAQSQTQFHVQPQPQPKPQVQLHVQSQTQPVSLANTQPRGPPASSPAPAPKFSPVTPKFTPVASKFSPGAPGGSGSQPNQKLGHPEALSAGTGSPQPPSFTYAQQREKPRVQEKQHPVPPPAQNQNQVRSPGAPGPLTLKEVEELEQLTQQLMQDMEHPQRQNVAVNELCGRCHQPLARAQPAVRALGQLFHIACFTCHQCAQQLQGQQFYSLEGAPYCEGCYTDTLEKCNTCGEPITDRMLRATGKAYHPHCFTCVVCARPLEGTSFIVDQANRPHCVPDYHKQYAPRCSVCSEPIMPEPGRDETVRVVALDKNFHMKCYKCEDCGKPLSIEADDNGCFPLDGHVLCRKCHTARAQT [F93A]
4 | decreasing interaction | MAAPRPSPAISVSVSAPAFYAPQKKFGPVVAPKPKVNPFRPGDSEPPPAPGAQRAQMGRVGEIPPPPPEDAPLPPPPLAGDGDDAEGALGGAAPPPPPPIEESFPPAPLEEEIFPSPPPPPEEEGGPEAPIPPPPQPREKVSSIDLEIDSLSSLLDDMTKNDPFKARVSSGYVPPPVATPFSSKSSTKPAAGGTAPLPPWKSPSSSQPLPQVPAPAQSQTQFHVQPQPQPKPQVQLHVQSQTQPVSLANTQPRGPPASSPAPAPKFSPVTPKFTPVASKFSPGAPGGSGSQPNQKLGHPEALSAGTGSPQPPSFTYAQQREKPRVQEKQHPVPPPAQNQNQVRSPGAPGPLTLKEVEELEQLTQQLMQDMEHPQRQNVAVNELCGRCHQPLARAQPAVRALGQLFHIACFTCHQCAQQLQGQQFYSLEGAPYCEGCYTDTLEKCNTCGEPITDRMLRATGKAYHPHCFTCVVCARPLEGTSFIVDQANRPHCVPDYHKQYAPRCSVCSEPIMPEPGRDETVRVVALDKNFHMKCYKCEDCGKPLSIEADDNGCFPLDGHVLCRKCHTARAQT [F71A;F93A]

Variants of: B1
Conditions: with enah_mouse Enah

Row | effect of a mutation on the interaction | Variant
5 | disrupting interaction | MAAPRPSPAISVSVSAPAFYAPQKKFGPVVAPKPKVNPFRPGDSEPPPAPGAQRAQMGRVGEIPPPPPEDAPLPPPPLAGDGDDAEGALGGAFPPPPPPIEESFPPAPLEEEIFPSPPPPPEEEGGPEAPIPPPPQPREKVSSIDLEIDSLSSLLDDMTKNDPFKARVSSGYVPPPVATPFSSKSSTKPAAGGTAPLPPWKSPSSSQPLPQVPAPAQSQTQFHVQPQPQPKPQVQLHVQSQTQPVSLANTQPRGPPASSPAPAPKFSPVTPKFTPVASKFSPGAPGGSGSQPNQKLGHPEALSAGTGSPQPPSFTYAQQREKPRVQEKQHPVPPPAQNQNQVRSPGAPGPLTLKEVEELEQLTQQLMQDMEHPQRQNVAVNELCGRCHQPLARAQPAVRALGQLFHIACFTCHQCAQQLQGQQFYSLEGAPYCEGCYTDTLEKCNTCGEPITDRMLRATGKAYHPHCFTCVVCARPLEGTSFIVDQANRPHCVPDYHKQYAPRCSVCSEPIMPEPGRDETVRVVALDKNFHMKCYKCEDCGKPLSIEADDNGCFPLDGHVLCRKCHTARAQT [F71A]
